The source of these data is paper PMC3243626 (The EMBO Journal, 2011).

Square brackets hold non-standard residues; d marks the D form. Ends that are not written are not given here. * marks the point of attachment. Biotin = O=C1N[C@H]2[C@H](CS[C@H]2CCCCC(=O)*)N1; pT = C[C@@H](OP(=O)(O)O)[C@H](N)C(=O)O; pS = N[C@@H](COP(=O)(O)O)C(=O)O

Assay [1] concerns the target immunopurified Mec1–18myc–Ddc2 (S. cerevisiae, UniProt P38111 1-2368; Q04377 1-747). In words: pull-down.
The target of assay [2] is T1, GST–Dpb11-N (BRCT1&2, aa 1–275) (S. cerevisiae, UniProt P47027 1-275).
T1 sequence (looked up): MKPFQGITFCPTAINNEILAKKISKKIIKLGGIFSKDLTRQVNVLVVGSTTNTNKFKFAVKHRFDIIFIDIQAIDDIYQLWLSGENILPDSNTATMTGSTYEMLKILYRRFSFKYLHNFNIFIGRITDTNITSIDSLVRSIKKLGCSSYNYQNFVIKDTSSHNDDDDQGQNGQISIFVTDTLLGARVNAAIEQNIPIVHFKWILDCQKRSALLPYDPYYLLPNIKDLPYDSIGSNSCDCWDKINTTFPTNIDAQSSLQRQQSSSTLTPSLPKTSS
In words: pull-down.

Sequence of immunopurified Mec1–18myc–Ddc2 (P38111 whole entry, chain 1 of 2, the tested form may be a part): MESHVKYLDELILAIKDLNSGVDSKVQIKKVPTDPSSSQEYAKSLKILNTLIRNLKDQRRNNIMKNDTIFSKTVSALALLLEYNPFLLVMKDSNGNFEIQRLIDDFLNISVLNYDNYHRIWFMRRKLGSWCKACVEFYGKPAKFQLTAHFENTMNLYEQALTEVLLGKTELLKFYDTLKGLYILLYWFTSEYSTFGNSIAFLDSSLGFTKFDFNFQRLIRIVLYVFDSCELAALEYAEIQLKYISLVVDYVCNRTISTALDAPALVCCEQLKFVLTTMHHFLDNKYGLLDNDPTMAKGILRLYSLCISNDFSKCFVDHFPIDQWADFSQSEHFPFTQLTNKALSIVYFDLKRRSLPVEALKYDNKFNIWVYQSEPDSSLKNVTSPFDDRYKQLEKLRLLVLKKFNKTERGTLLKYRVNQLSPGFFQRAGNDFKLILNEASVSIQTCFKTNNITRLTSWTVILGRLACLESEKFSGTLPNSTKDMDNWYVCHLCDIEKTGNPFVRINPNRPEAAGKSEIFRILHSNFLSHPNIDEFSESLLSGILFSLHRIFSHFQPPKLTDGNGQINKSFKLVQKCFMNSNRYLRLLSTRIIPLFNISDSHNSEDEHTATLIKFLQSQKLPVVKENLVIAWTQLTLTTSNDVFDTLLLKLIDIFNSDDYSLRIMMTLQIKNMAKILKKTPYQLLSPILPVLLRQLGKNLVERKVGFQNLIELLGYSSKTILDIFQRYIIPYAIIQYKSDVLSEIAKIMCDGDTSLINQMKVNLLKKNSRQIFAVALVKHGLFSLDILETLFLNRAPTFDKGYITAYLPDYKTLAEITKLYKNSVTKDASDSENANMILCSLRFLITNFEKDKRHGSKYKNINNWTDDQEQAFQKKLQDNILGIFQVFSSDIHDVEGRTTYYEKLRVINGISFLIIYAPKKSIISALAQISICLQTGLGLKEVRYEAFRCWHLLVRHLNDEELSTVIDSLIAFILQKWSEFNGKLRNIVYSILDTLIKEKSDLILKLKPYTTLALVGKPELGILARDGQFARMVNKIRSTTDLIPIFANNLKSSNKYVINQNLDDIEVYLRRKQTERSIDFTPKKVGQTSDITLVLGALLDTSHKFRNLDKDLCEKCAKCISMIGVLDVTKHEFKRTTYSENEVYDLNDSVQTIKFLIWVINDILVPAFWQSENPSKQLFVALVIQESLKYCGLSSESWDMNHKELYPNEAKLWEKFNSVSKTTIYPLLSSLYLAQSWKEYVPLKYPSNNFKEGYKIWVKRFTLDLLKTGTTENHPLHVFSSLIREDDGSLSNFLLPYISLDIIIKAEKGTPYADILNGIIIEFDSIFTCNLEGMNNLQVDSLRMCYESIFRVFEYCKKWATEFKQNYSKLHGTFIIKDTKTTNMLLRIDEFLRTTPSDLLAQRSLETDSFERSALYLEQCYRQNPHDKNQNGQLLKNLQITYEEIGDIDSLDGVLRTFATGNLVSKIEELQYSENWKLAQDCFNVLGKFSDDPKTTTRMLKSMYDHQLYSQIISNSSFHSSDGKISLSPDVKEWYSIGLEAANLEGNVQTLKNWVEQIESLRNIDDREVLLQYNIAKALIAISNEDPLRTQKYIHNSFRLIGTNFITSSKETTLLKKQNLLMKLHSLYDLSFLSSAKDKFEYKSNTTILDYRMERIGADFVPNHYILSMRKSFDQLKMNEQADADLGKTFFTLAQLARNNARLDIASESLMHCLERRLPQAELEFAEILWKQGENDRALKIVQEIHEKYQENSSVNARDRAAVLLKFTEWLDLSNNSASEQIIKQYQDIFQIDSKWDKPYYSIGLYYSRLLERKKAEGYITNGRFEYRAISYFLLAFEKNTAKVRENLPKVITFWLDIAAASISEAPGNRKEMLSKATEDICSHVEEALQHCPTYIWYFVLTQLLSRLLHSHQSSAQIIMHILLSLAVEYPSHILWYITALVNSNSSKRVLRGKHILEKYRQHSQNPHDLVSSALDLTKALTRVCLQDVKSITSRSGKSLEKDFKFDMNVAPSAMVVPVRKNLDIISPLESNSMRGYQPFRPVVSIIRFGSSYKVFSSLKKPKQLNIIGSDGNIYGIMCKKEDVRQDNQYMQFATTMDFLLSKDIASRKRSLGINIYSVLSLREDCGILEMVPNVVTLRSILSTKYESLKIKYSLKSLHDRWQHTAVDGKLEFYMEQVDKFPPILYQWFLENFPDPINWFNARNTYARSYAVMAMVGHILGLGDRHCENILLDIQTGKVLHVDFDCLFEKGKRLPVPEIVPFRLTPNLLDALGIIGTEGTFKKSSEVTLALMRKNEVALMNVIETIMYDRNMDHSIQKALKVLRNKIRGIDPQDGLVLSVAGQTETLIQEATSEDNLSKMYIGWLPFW
Sequence of immunopurified Mec1–18myc–Ddc2 (Q04377 whole entry, chain 2 of 2, the tested form may be a part): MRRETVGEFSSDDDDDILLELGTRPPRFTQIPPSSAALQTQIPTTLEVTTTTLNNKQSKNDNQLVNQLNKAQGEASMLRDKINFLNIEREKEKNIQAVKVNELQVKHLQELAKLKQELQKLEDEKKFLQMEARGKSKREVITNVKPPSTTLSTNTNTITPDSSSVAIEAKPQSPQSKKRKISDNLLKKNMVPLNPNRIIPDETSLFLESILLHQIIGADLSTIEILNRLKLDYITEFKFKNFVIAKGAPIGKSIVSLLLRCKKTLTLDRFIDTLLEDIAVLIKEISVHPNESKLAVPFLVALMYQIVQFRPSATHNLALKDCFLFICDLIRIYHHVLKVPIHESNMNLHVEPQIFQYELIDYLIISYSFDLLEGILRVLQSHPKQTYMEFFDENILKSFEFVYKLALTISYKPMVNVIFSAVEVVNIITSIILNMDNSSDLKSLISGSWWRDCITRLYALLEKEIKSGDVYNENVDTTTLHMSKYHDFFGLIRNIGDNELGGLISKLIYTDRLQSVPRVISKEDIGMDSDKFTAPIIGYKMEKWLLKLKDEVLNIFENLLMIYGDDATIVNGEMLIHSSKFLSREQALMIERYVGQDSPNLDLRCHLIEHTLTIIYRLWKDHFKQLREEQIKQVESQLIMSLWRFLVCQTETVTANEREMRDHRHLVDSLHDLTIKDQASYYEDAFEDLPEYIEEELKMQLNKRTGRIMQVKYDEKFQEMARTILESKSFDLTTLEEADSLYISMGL

B1: recombinant, full-length, His-tagged Dpb11 (natural protein, S. cerevisiae, UniProt P47027 1-764, looked up)
chain: MKPFQGITFCPTAINNEILAKKISKKIIKLGGIFSKDLTRQVNVLVVGSTTNTNKFKFAVKHRFDIIFIDIQAIDDIYQLWLSGENILPDSNTATMTGSTYEMLKILYRRFSFKYLHNFNIFIGRITDTNITSIDSLVRSIKKLGCSSYNYQNFVIKDTSSHNDDDDQGQNGQISIFVTDTLLGARVNAAIEQNIPIVHFKWILDCQKRSALLPYDPYYLLPNIKDLPYDSIGSNSCDCWDKINTTFPTNIDAQSSLQRQQSSSTLTPSLPKTSSLLNKFKPKGEKIWDKAMSLQQHSKTNFSVLGQSPLSINNKQEDLSDNSTLIFKNCAFIIHHIFPGNHRSILTKIVVQNGGKIETSYLSGIYDHSYYIIPSNKALDSFNDLPEIIDDNDGIVTEFFIERCLYYQKLLHPIDLWSKPFLSTIEFQVSSSSKLLHHEFSSSPFLNVTITGFSGVELLHLTKVLNLLKPMGINYVEYLNKSTDILLINLAALPSIPKTHPLWSNEFSDLFTQFCINNNNDDPGDNNRKDFQNNSILRNSMKRKIEYIKKFHSIPVVTPAFIFKLLSAASGENNEIFLNNIKWCIICPRGHKDDFKCKIKKPYYTSISSEKKYQNNDPKIDKTILLKRNNSSLSEHSMKDTKNELLQKIRETDSGRKKRSVSSSIMDVSSERQMPDTKRIKLESLPKNFVPKQIKRTTSWGTIMSENVPTEQPTAISNPEEIPRTEEVSHTQVTYGSIQDKKRTASLEKPMRRQTRNQTKELDS
For the molecule B1, the binding result in assay [1] is reported as “binds”.
As to TGQTEEIKTQIINSPEQNALNATFE[pT]PVTLSRINF (peptide, UniProt P14737 449-483, looked up, not fully specified (residue 23, N-terminus)) [Rad9 phospho-T474 peptide (biotinylated 35mer)], the binding result in assay [2] was “binds”.
Same read-out and setting: to {Biotin-EAhx}-GISAQKGPVFHSTGQTEEIKTQIIN[pS]PEQNALNAT (peptide, UniProt P14737 437-471, looked up) [Rad9 phospho-S462 peptide (biotinylated 35mer)] belongs “binds”.
